Values joined by “and” are separate entries in the source; they are usually repeats but may differ in a detail not shown here. Identical values can stand only once.
B1: NI-607.427_C5 IgG4 S228P (antibody, V domains shown)
VH: QVQLVQSGAEVKKPGASVKVSCKASGYTFTSYGISWVRQAPGQGLEWMGWISAYNGNTNYAQKLQGRVTMTTDTSTSTAYMELRSLRSDDTAVYYCARDNRAGWDQLDYWGQGTLVTVSS
VL: not shown
B2: NI-607.532_C11 IgG4 S228P (antibody, V domains shown)
VH: QVQLVESGGGLIQPGGSLRLSCAASGFTVSSNYMSWVRQAPGKGLEWVSVIYSGGSTYYADSVKGRFTISRDNSKNTLFLQMNSLRAEDTAVYYCARDLQYYGMDVWGQGTTVTVSS
VL: DIQMTQSPSFLSASVGDRVTITCRASQGISSYLAWYQQKPGKAPKLLIYAASTLQSGVPSRFSGSGSGTEFTLTISSLQPEDFATYYCQQLDSYPPRDTFGQGTKVEIK
B3: NI-607.531_C8 IgG4 S228P (antibody, V domains shown)
VH: EVQLVESGGGVVQPGRSLRLSCTASGFTFSFYSVHWVRQAPGKGLEWVAVISYDGSTKYYADSVKGRFTISRDNSKNTLYLQMDSLRTEDTAVYYCASPPISPIPAAGTPLAYWGQGTLVTVSS
VL: not shown
B4: NI-607.649_B11 (antibody, V domains shown)
VH: QVQLVQSGAEVKKPGSSVKVSCKASGGTFSNYAISWVRQAPGQGLEWMGGIIPIFGTANYAQKFQGRVTITADESTSTAYMELSSLRSEDTAVYYCAGDRWYYDSSGYPTPDEYFQHWGQGTQVTVSS
VL: QSVLTQPPSVSGAPGQRVTISCTGSSSNIGAGYDVHWYQQLPGTAPKLLIYGNSNRPSGVPDRFSGSKSGTSASLAITGLQAEDEADYYCQSYDSSLSGVVFGGGTKLTVL
B5: NI-607.649_B11 IgG4 S228P (antibody, V domains shown)
VH: QVQLVQSGAEVKKPGSSVKVSCKASGGTFSNYAISWVRQAPGQGLEWMGGIIPIFGTANYAQKFQGRVTITADESTSTAYMELSSLRSEDTAVYYCAGDRWYYDSSGYPTPDEYFQHWGQGTQVTVSS
VL: QSVLTQPPSVSGAPGQRVTISCTGSSSNIGAGYDVHWYQQLPGTAPKLLIYGNSNRPSGVPDRFSGSKSGTSASLAITGLQAEDEADYYCQSYDSSLSGVVFGGGTKLTVL
B6: NI-607.532_F9 IgG4 S228P (antibody, V domains shown)
VH: EVQLVESGGNLIQPGGSLRLSCAASGFTVSSNYMSWVRQAPGKGLEWVSVIYSGGSTYYADSVKGRFTISRDNSRNTLYLQMNSLRAEDTAVYFCARDRVVRGVRGNGMDVWGQGTTVTVSS
VL: AIRMTQSPSSLSASVGDRVTITCQASQDINIYLNWYQQRPGKAPKLLIYDASNLETGVPSRFSGSGSGTDFTFTISSLQPEDIATYYCHQYDNLPRTFGQGTKVDIK

What was measured:
[1] = molecular target: T1, SARS-CoV-2-S1 (RBD)-His protein (Trenzyme) (SARS-CoV-2, UniProt P0DTC2 319-541); assay: competition ELISA, RBD binding to coated ACE2
[2] = molecular target: T1, SARS-CoV-2-S1 (RBD)-His protein …
[3] = molecular target: T1, SARS-CoV-2-S1 (RBD)-His protein …; assay: direct ELISA on coated RBD-His
[4] = molecular target: 2019-nCov Spike protein (S1 mFC tag) (SARS-CoV-2, UniProt P0DTC2 16-685)
[5] = molecular target: T1, SARS-CoV-2-S1 (RBD)-His protein …; assay: direct ELISA on coated RBD-His (FIG. 1D)

Row | Binder | IC50 [1] | IC50 (read off the curve) [2] [mg/L] | further results
1 | B1 | ~2.79 µg/mL and ~18.6 nM |  | 
2 | B2 | ~2.32 µg/mL and ~15.4 nM |  | 
3 | B3 | ~0.191 mg/L | ~0.03 | EC50 [3]: ~8.5 pM
4 | B4 |  |  | EC50 (read off the curve) [4]: ~500 pM
5 | B5 | ~0.047 mg/L | ~0.05 | EC50 [5]: ~8.5 pM
6 | B6 | ~1.09 µg/mL and ~7.3 nM |  | 

Reference: patent US20230242624A1 (NEURIMMUNE, published 2023)
